Experimental data: patent US20030170785A1 (ORTHO MCNEIL PHARMACEUTICAL, published 2003)
Each block holds one binder with its values, some of them ahead of it.

How the values were obtained:
[1] = biological target: CaV1.2 (α1C) L-type calcium channel subunit; test: cell-based or functional assay
[2] = biological target: T1, Protein A Sepharose CL-4B (Pharmacia) (UniProt P38507 37-477); test: immunoprecipitation from HEK293 lysates with protein-A beads only, Western blot with anti-HA Ab
T1 construct: Used alone (without anti-CaV1.2 antibody) as the negative control of the reciprocal immunoprecipitation; also called protein-A beads
Experimental: Formation of a stable complex of α₂δ-4 with other channel subunits was tested by coimmunprecipitation. The α₂δ-4 subunit was first tagged with an HA epitope and co-transfected with CaV1.2 (α1C) and β₃ subunits into HEK cells. Co-immunoprecipitation was carried out with transient transfected HEK 293 cells by constructs of α1C, β₃ and α₂δ-4 tagged with HA epitope. Two days after the transfection, the cells (from two 150 mm plates) were harvested and washed with PBS. The cells were then resuspended in 2 ml of detergent extraction buffer: 1% (vol/vol) Nonidet P-40, 0.5% deoxycholate, 150 mM NaCl, 5 mM EDTA, 50 mM Tris-HCl (pH 8.0) and 20 μl of protease inhibitor cocktail (Sigma), followed 10 passages each through 20 and 26-gauge needles. Cell extracts were cleared by centrifugation. […] After incubated at 4° C. for overnight, the beads were precipitated by brief centrifugation, and washed 3 times with 1 ml of lysis buffer. Finally, 100 μl of 1×SDS loading buffer were added, and 20 μl were subjected to 4-20% SDS. The co-precipitated subunits were then analyzed by Western blot with indicated antibodies.

B1: human calcium channel α2δ-4 subunit (other)
chain: MAVALGTRRRDRVKLWADTFGGDLYNTVTKYSGSLLLQKKYKDVESSLKIEEVDGLELVRKFSEDMENMLRRKVEAVQNLVEAAEEADLNHEFNESLVFDYYNSVLINERDEKGNFVELGAEFLLESNAHFSNLPVNTSISSVQLPTNVYNKDPDILNGVYMSEALNAVFVENFQRDPTLTWQYFGSATGFFRIYPGIKWTPDENGVITFDCRNRGWYIQAATSPKDIVILVDVSGSMKGLRMTIAKHTITTILDTLGENDFVNIIAYNDYVHYIEPCFKGILVQADRDNREHFKLLVEELMVKGVGVVDQALREAFQILKQFQEAKQGSLCNQAIMLISDGAVEDYEPVFEKYNWPDCKVRVFTYLIGREVSFADRMKWIACNNKGYYTQISTLADTQENVMEYLHVLSRPMVINHDHDIIWTEAYMDSKLLSSQAQSLTLLTTVAMPVFSKKNETRSHGILLGVVGSDVALRELMKLAPRYKLGVHGYAFLNTNNGYILSHPDLRPLYREGKKLKPKPNYNSVDLSEVEWEDQAESLRTAMINRETGTLSMDVKVPMDKGKRVLFLTNDYFFTDISDTPFSLGAVLSRGHGEYILLGNTSVEEGLHDLLHPDLALAGDWIYCITDIDPDHRKLSQLEAMIRFLTRKDPDLECDEELVREVLFDAVVTAPMEAYWTALALNMSEESEHVVDMAFLGTRAGLLRSSLFVGSEKVSDRKFLTPEDEASVFTLDRFPLWYRQASEHPAGSFVFNLRWAEGPESAGEPMVVTASTAVAVTVDKRTAIAAAAGVQMKLEFLQRKFWAATRQCSTVDGPYTQSCEDSDLDCFVIDNNGFILISKRSRETGRFLGEVDGAVLTQLLSMGVFSQVTMYDYQAMCKPSSHHHSAAQPLVSPISAFLTATRWLLQELVLFLLEWSVWGSWYDRGAEAKSVFHHSHKHKKQDPLQPCDTEYPVFVYQPAIREANGIVECGPCQKVFVVQQIPNSNLLLLVTDPTCDCSIFPPVLQEATEVKYNASVKCDRMRSQKLRRRPDSCHAFHPEVRVEADRGWAGFSSPNPLCLGLCPCRQEHIGMPMNTPVPVLLGGNIRVYAL
Ca^2+ influx (fluorescence change after depolarization with 50 mM KCl) in transfected HEK 293 cells [1]: 6 fold

binding result [2]: no binding
B2: human calcium channel α2δ-4 subunit tagged with HA epitope (other, not shown: small tags and cut ends)
chain: B1 chain
notes: Expressed by transient co-transfection with CaV1.2 (α1C) and β3 in HEK293 cells and tested in detergent lysates; also called α2δ-4(HA)
